Earlier results on one molecule are cited in US20060110594A1, “Polymer-coated substrates for binding biomolecules and methods of making and using thereof” (priority 2004, published 2006).

The conditions of this data set: isoelectric point, listed property.

B1: Myoglobin: protein immobilized on EMA, 17.6 kDa (protein, UniProt P68082 2-154, looked up)
Myoglobin: GLSDGEWQQVLNVWGKVEADIAGHGQEVLIRLFTGHPETLEKFDKFKHLKTEAEMKASEDLKKHGTVVLTALGGILKKKGHHEAELKPLAQSHATKHKIPIKYLEFISDAIIHVLHSKHPGDFGADAQGAMTKALELFRNDIAAKYKELGFQG
modifications: immobilized on EMA
notes: protein immobilized on EMA, 17.6 kDa
With B1, the pI is 7.2.
